Assay results reported in patent publication US20230129258A1 (Bicycle, published 2023).
Starred links: 1 amine or outer side, 2 acyl side, 3 side chain; linkers in the order of their positions; H or OH if unused. Positions of bridges follow the written chain, without caps; N, C: chain ends. Non-standard residues stand in square brackets, D forms with d. Chains are numbered I, II in the order given. No end group written: not given here. dLys(PYA) = D-lysine Nε-acylated with 4-pentynoic acid, clicked (triazole) to the linker azide, O=C(CCc1cn([*:3])nn1)NCCCC[C@@H](N[*:1])C(=O)[*:2]; TATA = O=C(CC[*:1])N1CN(C(=O)CC[*:2])CN(C(=O)CC[*:3])C1; 1Nal = N[C@@H](Cc1cccc2ccccc12)C(=O)O; Hyp = O=C(O)[C@@H]1C[C@@H](O)CN1; hArg = N=C(N)NCCCC[C@H](N)C(=O)O; tBuAla = CC(C)(C)C[C@H](N)C(=O)O; Nle = CCCC[C@H](N)C(=O)O

Experiments:
[1] = molecular target: T1, human Nectin-4 extracellular domain (human, UniProt Q96NY8 32-349, biotinylated where captured on the streptavidin chip); assay: SPR direct binding, biotinylated Nectin-4 ECD on streptavidin chip, 37° C., n = 9
T1 construct: extracellular domain; also called Nectin-4 (human); Biotinylated - Nectin-4 extracellular domain
T1 sequence (looked up): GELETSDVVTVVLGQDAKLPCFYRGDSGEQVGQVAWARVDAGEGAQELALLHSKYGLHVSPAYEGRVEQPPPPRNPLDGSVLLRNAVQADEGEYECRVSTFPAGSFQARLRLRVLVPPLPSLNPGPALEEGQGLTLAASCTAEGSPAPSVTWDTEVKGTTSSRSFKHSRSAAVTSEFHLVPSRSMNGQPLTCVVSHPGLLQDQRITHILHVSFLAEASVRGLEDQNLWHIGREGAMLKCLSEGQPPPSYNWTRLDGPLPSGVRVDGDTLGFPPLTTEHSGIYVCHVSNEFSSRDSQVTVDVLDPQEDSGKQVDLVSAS

[2] = molecular target: T2, mouse CD137 extracellular domain (mouse, UniProt P20334 24-187); assay: SPR dual binding, BCY11863 captured on biotinylated human Nectin-4, n = 2
T2 construct: extracellular domain
T2 sequence (looked up): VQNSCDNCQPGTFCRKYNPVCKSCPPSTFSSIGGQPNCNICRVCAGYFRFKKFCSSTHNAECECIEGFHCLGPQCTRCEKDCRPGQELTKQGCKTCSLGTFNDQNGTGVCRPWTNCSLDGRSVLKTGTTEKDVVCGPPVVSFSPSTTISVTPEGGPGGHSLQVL

[3] = molecular target: T3, rat CD137 extracellular domain (rat, UniProt Q4W8J3 24-189); assay: as above
T3 sequence: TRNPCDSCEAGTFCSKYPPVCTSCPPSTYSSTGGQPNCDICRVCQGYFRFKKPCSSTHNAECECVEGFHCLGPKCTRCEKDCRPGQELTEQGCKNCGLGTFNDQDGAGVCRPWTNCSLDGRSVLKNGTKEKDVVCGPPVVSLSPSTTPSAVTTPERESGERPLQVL

[4] = molecular target: T4, human CD137 extracellular domain (human, UniProt Q07011 24-186, biotinylated where captured on the streptavidin chip); assay: SPR, direct binding of BCY11863 to immobilized human CD137, 1:1 fit; the text says the reported KD may be an overestimation (avidity)
T4 construct: extracellular domain; Section 17 says only 'Recombinant human CD137 (R&D systems)'; also called CD137 (human); Recombinant human CD137 (R&D systems)
T4 sequence (Q07011 24-186): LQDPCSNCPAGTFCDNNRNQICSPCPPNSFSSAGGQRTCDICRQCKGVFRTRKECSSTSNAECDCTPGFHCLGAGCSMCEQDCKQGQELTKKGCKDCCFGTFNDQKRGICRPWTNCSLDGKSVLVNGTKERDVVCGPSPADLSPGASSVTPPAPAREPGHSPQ

[5] = molecular target: T5, Nectin-like-5 (2530-CD-050, R&D Systems) (UniProt P15151 27-343, biotinylated); assay: SPR, biotinylated target on streptavidin surface
T5 sequence (looked up): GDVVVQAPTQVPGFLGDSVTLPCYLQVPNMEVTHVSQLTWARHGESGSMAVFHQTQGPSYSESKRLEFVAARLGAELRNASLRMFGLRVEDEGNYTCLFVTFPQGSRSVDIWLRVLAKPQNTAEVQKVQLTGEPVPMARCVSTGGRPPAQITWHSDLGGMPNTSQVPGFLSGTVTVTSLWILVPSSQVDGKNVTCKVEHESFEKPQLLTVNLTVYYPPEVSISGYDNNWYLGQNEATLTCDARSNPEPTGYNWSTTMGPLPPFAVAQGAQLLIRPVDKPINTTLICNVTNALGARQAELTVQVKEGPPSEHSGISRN

[6] = molecular target: T6, Nectin-like-3 (4290-S4-050, R&D Systems) (UniProt Q8N3J6 25-367, biotinylated); assay: SPR, biotinylated target on streptavidin surface
T6 sequence (looked up): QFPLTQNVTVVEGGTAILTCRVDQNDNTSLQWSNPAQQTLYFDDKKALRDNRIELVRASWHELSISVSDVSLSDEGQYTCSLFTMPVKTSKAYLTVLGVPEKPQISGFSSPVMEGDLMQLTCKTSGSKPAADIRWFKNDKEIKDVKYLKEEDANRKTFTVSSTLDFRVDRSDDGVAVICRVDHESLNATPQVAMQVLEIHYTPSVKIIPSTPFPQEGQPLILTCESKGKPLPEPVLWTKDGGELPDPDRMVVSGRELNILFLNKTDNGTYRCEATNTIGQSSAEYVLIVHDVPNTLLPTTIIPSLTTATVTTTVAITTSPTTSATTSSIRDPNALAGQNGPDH

[7] = molecular target: T7, Nectin-like-1 (3678-S4-050, R&D Systems) (UniProt Q8N126 25-330, biotinylated); assay: SPR, biotinylated target on streptavidin surface
T7 sequence (looked up): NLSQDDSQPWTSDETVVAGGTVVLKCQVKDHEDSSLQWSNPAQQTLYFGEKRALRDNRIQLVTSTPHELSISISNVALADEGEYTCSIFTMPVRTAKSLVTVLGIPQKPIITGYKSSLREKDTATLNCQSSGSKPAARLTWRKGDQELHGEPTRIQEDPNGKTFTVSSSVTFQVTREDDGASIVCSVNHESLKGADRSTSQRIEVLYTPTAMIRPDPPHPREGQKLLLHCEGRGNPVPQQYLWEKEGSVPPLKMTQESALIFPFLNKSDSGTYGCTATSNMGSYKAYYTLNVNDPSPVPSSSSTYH

[8] = molecular target: T8, Nectin-1 (2880-N1, R&D Systems) (UniProt Q15223 31-334, limits assumed, biotinylated); assay: SPR, biotinylated target on streptavidin surface
T8 sequence (looked up): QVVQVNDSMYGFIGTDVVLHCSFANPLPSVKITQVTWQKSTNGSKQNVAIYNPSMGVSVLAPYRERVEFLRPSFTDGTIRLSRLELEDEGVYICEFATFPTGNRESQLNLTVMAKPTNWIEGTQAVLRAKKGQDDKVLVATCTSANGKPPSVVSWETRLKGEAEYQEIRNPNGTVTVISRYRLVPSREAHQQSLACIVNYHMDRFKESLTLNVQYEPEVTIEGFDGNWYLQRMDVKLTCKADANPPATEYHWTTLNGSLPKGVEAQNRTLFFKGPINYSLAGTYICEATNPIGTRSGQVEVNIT

[9] = molecular target: T9, Nectin-like-4 (4164-S4, R&D Systems) (UniProt Q8NFZ8 21-324, biotinylated); assay: SPR, biotinylated target on streptavidin surface
T9 sequence (looked up): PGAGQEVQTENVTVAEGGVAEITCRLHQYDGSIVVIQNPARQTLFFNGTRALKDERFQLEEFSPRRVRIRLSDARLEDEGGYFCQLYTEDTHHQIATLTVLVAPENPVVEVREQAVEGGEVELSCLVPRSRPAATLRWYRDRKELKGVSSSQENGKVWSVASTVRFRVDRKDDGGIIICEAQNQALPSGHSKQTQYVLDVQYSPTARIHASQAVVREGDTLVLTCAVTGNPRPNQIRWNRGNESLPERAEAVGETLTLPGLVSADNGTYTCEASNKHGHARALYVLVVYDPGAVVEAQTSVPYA

B1: heterotandem bicyclic peptide complex BCY11863 (peptide)
peptide 1: CP[1Nal][dD]CM[hArg]DWSTP[Hyp]WC
peptide 2: Ac-C[tBuAla]PE[dLys(PYA)]PYCFADPY[Nle]CA
modifications: linker I:1-I:5-I:15, II:1-II:8-II:15 via TATA; not fully specified (bridges); also: 1:2 complex: BCY8116 + 2x BCY8928
notes: also called Nectin-4/CD137 heterotandem
Kd [1]: 5.2 nM
binding result [2]: no binding
binding result [3]: no binding
Kd [4]: 0.368 nM
binding result [5]: no binding (tested: 5000 nM)
binding result [6]: no binding (tested: 5000 nM)
binding result [7]: no binding (tested: 5000 nM)
binding result [8]: no binding (tested: 5000 nM)
binding result [9]: no binding (tested: 5000 nM)
